Results on 24 molecules are retold here after patent publication US20250060359A1, “FUSION PROTEINS AND METHODS FOR MONITORING FIBRONECTIN MATRIX ASSEMBLY” (The Trustees of Princeton University, priority 2023, published 2025).

Where no end group is shown, it is not given here.

Series [1] has as its target T1, FN fibrils (Mus musculus, UniProt P11276).
T1 construct: endogenous in cells; host or cells: NIH 3T3 fibroblasts
The experiment in a line: Phage clones incubated with growing fibroblast cultures actively assembling matrix; overlap of phage and FN signal. It counts as cell-based. To be noted: for Manders' coefficient with a higher concentration of phage: high concentration phage stocks. The procedure: FIGS. 4A-4C are representative photomicrographs of fixed and stained assembled matrices after clone 2 (1×10^12 pfu/mL) was incubated with NIH 3T3 fibroblasts for 2 days, and specifically stained for FN (4A) and phage (4B), as well as a merge of the two images (4C). Insets in 4A and 4B are maximum intensity projections of a single fibril obtained through confocal microscopy from the S2 condition for FN (4A) and phage (4B).
Phage S2 and S2-based phages, effectively label fibrils as they are being assembled.
(§1) To further analyze the interaction between the isolated phages and FN fibrils, each phage clone was incubated with growing fibroblast cultures that were actively assembling matrix. Monolayers were then stained for both phage and FN and resulting images were analyzed to assess the amount of overlap between phage and FN signal. […] To quantify the extent of phage overlap with FN fibrils, Manders' coefficients were generated, which define the percent overlap between the two image channels. Manders' coefficients reveled the percent overlap of the phage fluorescence with FN was highest for clone S2 (Manders' coefficient 0.91). A summary of all Manders' coefficients and phage characterizations can be found in Table 2.
Clone 2 staining was extremely robust and images of matrix assembled in the presence of a higher concentration of phage appeared to have more coverage of fibrils by phage. […] For clone 12, it appears that adding more phage led to higher background staining. […] This is further supported by confocal images depicting a single fibril from a clone 2 incubation in which there is significant overlap between phage and FN at the level of a single fibril.

Series [2] addresses T1, FN fibrils. The experiment in a line: Fusion proteins tested in fibroblast culture for FN fibril binding. It counts as cell-based. As to the method: (§2) Following purification using glutathione affinity chromatography, the fusion proteins was tested in fibroblast culture to determine if they maintained the properties seen in the phage.
The test system of series [3] is FN matrix accumulation. As to the kind of experiment: Fusion proteins tested in fibroblast culture for impact on matrix accumulation. It counts as cell-based. As to the method:
as §2

The test system of series [4] is FN matrix assembly. As to the kind of experiment: FN matrix accumulation in the presence of phage clones (immunofluorescence, immunoblots of DOC-insoluble FN). It counts as cell-based. An excerpt:
Beyond the ability of the isolated phage clones to bind FN matrix, their potential capacity to modulate matrix accumulation was considered. Given that the clones were panned against a FN fragment containing the assembly domain, it was questioned if they might modulate FN matrix assembly.

Series [5] addresses T1, FN fibrils. The experiment in a line: Phage binding to FN fibrils of fixed confluent NIH 3T3 fibroblasts (co-staining for M13 phage and FN). It counts as cell-based. The procedure: Confluent NIH 3T3 fibroblasts, which have been well characterized to assemble a dense, fibrillar FN matrix, were used to test phage binding to FN fibrils. Cells were fixed, blocked, and incubated with individual phage clones, then co-stained with antibodies to M13 phage and FN and imaged. Most phage-monolayers looked like the negative control and contained infrequent phage signals that were not aligned with the FN matrix. Several of the clones generated a pattern of phage staining that had some co-localization with FN fibrils but also appeared to contain some phage aggregates.

Series [6] concerns FN matrix. As to the kind of experiment: Immunoblot comparing effects of S3 and S20 against a control on formation of FN matrix (FIG. 2). It counts as cell-based. The procedure:
FIG. 2 is an immunoblot comparing the effects of S3 and S20 against a control on the formation of FN matrix.
Referring to FIG. 2, when incubated with cells during matrix assembly, S20 can enhance matrix formation by 60%.

Substrate in series [7]: FN matrix (fibronectin fibrils) assembled by NIH 3T3 fibroblasts (UniProt P11276)
The experiment in a line: phage incubated with fibroblasts assembling matrix; overlap of phage fluorescence with FN stain.

Substrate in series [8]: FN matrix (fibronectin fibrils) assembled by NIH 3T3 fibroblasts (UniProt P11276)
As to the kind of experiment: cell-based or functional assay.

Series [9] has as its target T2, FN matrix (fibronectin fibrils) assembled by NIH 3T3 fibroblasts (UniProt P11276 33-2477, limits assumed).
T2 construct: whole, on cells; Fibrillar, cell-assembled fibronectin matrix; also called FN fibrils
As to the kind of experiment: phage incubated with fibroblasts assembling matrix; overlap of phage fluorescence with FN stain. The procedure: FIGS. 4A-4C are representative photomicrographs of fixed and stained assembled matrices after clone 2 (1×10¹² pfu/mL) was incubated with NIH 3T3 fibroblasts for 2 days, and specifically stained for FN (4A) and phage (4B), as well as a merge of the two images (4C). Insets in 4A and 4B are maximum intensity projections of a single fibril obtained through confocal microscopy from the S2 condition for FN (4A) and phage (4B).
as §1

FN matrix (fibronectin fibrils) assembled by NIH 3T3 fibroblasts (UniProt P11276), sequence (P11276 33-2477 limits assumed): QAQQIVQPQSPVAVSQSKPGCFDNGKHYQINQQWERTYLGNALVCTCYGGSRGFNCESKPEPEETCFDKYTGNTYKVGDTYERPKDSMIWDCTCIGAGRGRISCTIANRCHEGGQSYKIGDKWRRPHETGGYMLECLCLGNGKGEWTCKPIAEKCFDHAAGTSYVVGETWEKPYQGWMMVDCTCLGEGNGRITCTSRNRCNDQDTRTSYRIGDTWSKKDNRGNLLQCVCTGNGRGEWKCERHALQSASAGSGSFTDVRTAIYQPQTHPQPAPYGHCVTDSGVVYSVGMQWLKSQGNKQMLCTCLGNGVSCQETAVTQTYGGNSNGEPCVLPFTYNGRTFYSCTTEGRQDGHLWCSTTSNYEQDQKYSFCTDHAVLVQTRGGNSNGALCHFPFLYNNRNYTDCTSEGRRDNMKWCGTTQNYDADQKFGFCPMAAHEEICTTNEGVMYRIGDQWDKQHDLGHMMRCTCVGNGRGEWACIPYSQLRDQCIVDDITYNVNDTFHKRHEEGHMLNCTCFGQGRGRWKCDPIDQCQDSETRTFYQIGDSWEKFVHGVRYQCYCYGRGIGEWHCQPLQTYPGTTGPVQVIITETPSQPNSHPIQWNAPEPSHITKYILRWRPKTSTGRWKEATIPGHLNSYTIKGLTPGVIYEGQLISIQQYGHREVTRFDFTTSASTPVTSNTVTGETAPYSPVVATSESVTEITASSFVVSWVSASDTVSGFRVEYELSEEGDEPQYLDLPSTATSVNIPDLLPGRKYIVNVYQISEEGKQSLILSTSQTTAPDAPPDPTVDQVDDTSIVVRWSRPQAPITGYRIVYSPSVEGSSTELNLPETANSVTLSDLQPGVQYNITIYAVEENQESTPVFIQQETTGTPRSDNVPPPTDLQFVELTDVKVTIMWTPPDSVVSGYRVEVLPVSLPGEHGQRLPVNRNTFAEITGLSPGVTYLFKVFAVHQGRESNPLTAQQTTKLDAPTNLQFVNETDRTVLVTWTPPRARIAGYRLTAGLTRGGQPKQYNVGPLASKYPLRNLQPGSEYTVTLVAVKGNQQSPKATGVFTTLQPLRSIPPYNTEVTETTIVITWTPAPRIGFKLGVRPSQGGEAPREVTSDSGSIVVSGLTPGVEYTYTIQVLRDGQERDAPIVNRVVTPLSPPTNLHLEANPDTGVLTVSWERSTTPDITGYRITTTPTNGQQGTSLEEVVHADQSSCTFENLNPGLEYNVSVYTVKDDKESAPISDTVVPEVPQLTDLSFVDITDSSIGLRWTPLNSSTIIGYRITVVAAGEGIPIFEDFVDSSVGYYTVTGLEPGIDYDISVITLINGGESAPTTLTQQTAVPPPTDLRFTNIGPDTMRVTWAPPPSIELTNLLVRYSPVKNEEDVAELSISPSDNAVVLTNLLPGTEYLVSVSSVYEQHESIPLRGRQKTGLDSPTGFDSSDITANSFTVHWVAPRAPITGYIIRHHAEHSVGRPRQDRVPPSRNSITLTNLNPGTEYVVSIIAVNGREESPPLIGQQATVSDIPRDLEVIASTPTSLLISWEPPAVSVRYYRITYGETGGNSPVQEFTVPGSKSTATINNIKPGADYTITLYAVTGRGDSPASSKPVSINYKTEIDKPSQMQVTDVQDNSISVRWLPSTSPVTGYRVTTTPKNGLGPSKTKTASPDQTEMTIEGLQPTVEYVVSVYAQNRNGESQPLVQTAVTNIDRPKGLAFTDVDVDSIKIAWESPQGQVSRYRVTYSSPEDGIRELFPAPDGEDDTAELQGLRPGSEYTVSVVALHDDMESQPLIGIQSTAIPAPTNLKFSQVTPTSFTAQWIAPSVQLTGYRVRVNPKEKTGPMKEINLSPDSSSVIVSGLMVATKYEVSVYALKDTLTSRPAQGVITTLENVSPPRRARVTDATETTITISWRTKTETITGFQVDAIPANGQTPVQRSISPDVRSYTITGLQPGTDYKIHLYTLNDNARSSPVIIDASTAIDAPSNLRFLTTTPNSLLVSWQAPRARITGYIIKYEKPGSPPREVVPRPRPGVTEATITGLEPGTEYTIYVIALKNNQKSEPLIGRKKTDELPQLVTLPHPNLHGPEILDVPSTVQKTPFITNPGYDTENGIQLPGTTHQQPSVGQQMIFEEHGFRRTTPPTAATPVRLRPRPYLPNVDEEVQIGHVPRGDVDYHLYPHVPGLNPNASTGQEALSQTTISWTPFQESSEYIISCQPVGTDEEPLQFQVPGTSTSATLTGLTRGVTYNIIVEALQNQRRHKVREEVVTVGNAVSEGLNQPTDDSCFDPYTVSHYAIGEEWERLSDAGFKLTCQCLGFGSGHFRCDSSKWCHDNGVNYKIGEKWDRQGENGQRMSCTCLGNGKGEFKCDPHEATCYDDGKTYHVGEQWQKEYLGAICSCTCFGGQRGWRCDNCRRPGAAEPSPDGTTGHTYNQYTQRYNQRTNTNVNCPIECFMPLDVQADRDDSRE
T1 sequence (P11276 33-2477): as the sequence (P11276 33-2477 limits assumed) above
T2 sequence (P11276 33-2477 limits assumed): as above

For the molecule DYSYFDLWYSDT [Clone 12, 29], the “Manders' coefficient with a higher concentration of phage” value in [1] is recorded as “the Manders' coefficient did not indicate higher coverage with inclusion of more phage”.
For “GST-S3-GFP: fusion protein of GST, S3 peptide and GFP (NHVALWGTGTAS; not fully specified (N-terminus, C-terminus); also: fusion protein, GST dimerising)”, the FN fibril binding entry in series [2] is reported as “no detectable FN fibril binding”. The “impact on matrix accumulation” value in series [3] was “neither the S3 or S20 fusion proteins showed any matrix binding capacity or impact on matrix accumulation”.
In the same order, the values of “GST-S20-GFP: fusion protein of GST, S20 peptide and GFP (SDITPWWLLAQD; not fully specified (N-terminus, C-terminus); also: fusion protein, GST dimerising)” are “no detectable FN fibril binding” and “neither the S3 or S20 fusion proteins showed any matrix binding capacity or impact on matrix accumulation”.
As for GSYDWTKLPGLE [Clone 2, 16, 31, 48], the “Manders' coefficient with a higher concentration of phage” value in [1] is “maintenance of the high Manders' coefficient”. In series [1] (overlap of the phage fluorescence with FN, growing fibroblast cultures), the “Manders' Coefficient” value is listed as 0.91. In addition, the “labeling of FN fibrils with incorporated phage” value in [1] (phage incubated with fibroblasts as they assembled fibrils) is on record as “complete labeling of FN fibrils with incorporated phage”. The “FN matrix accumulation by immunofluorescence” value (from here on “FN matrix accumulation”) in series [4] was “did not appear to impact FN matrix assembly”. The “pattern of phage staining, co-localization with FN matrix” value in series [5] is on record as “created a fibrillar pattern that colocalized with the FN matrix better than the other phages”.
For the molecule NHVALWGTGTAS [Clone 3, 5, 27, 28], the “FN matrix accumulation” value in [4] is “without repressing FN matrix immunofluorescence signal”.
As to NHVALWGTGTAS [Clone S3], the “effect on matrix formation” value in series [6] is recorded as “inhibits matrix formation”.
Take “S2-GFP: GST-S2-GFP after cleavage of the GST tag (GSYDWTKLPGLE; not fully specified (C-terminus)) [Clone S2-GFP]”: in series [2], the FN fibril binding result is “completely ablated FN fibril binding”.
For SDITPWWLLAQD [Clone 20, 21, 46], the “FN matrix accumulation” value in series [4] is “increased FN matrix assembly by two-fold”.
Turning to SDITPWWLLAQD [Clone S20], the “effect on matrix formation” value in series [6] was “enhances matrix formation”. The “enhancement of matrix formation” value in series [6] (incubated with cells during matrix assembly) was 60%.

B1: M13 phage clone 7 (7, 22, 38) displaying AHB… (peptide, not shown: large carriers)
chain: AHXRLSGSAPMF-{pIII (M13 phage)}
modifications: not fully specified
For B1, the Manders' Coefficient in [7] stood at 0.39.

B2: M13 phage clone 20 (20, 21, 46) displaying … (S20) (peptide, not shown: large carriers)
chain: SDITPWWLLAQD
modifications: not fully specified
For the molecule B2, the matrix formation (FIG. 2 immunoblot) in [8] came to 60%. The Manders' Coefficient in [7] stood at 0.552.

B3: M13 phage clone 3 (3, 5, 27, 28) displaying … (S3) (peptide, not shown: large carriers)
chain: NHVALWGTGTAS
modifications: not fully specified
For the molecule B3, the Manders' Coefficient in series [7] was 0.527.

B4: M13 phage clone 12 (12, 29) displaying DYSYFDLWYSDT (peptide)
chain: DYSYFDLWYSDT
modifications: not fully specified (C-terminus)
notes: Whole phage particle stood in the assay; not shown: pIII protein of M13 phage; the peptide is its N-terminal fusion
As for B4, in series [9], the “Manders' Coefficient” value stood at 0.746.

B5: M13 phage clone 1 displaying … (peptide, not shown: large carriers)
chain: VSGYNVMPLNGD
modifications: not fully specified
Regarding B5, the Manders' Coefficient in [7] is 0.253.

B6: M13 phage clone 19 (19, 24, 32, 41, 45) displaying … (peptide, not shown: large carriers)
chain: DHIPLRGQRVWQ
modifications: not fully specified
As for B6, the Manders' Coefficient in series [7] is 0.397.

B7: M13 phage clone 37 displaying … (peptide, not shown: large carriers)
chain: WHVALTGNNLER
modifications: not fully specified
On to B7, for which the Manders' Coefficient in [7] came out at 0.698.

B8: M13 phage clone 4 (4, 44) displaying … (peptide, not shown: large carriers)
chain: HNQTMWWTFPST
modifications: not fully specified
As for B8, the Manders' Coefficient in series [7] turned out to be 0.47.

B9: M13 phage clone 2 (2, 16, 31, 48) displaying GSYDWTKLPGLE (S2) (peptide)
chain: GSYDWTKLPGLE
modifications: not fully specified (C-terminus)
notes: Whole phage particle stood in the assay; also called clone S2; clone s2; not shown: pIII protein of M13 phage; the peptide is its N-terminal fusion
Regarding B9, the “Manders' Coefficient” value in series [9] turned out to be 0.913.

B10: M13 phage clone 23 displaying … (peptide, not shown: large carriers)
chain: YVTNWGSLSGSY
modifications: not fully specified
For the molecule B10, in [7], the Manders' Coefficient came to 0.675.

B11: M13 phage clone 6 (6, 35) displaying … (peptide, not shown: large carriers)
chain: SITEFNLLPGLW
modifications: not fully specified
With B11, the Manders' Coefficient in [7] turned out to be 0.606.

B12: M13 phage clone 11 displaying … (peptide, not shown: large carriers)
chain: DHVSLSGRSAAM
modifications: not fully specified
For the molecule B12, the Manders' Coefficient in series [7] was 0.173.

B13: M13 phage clone 39 displaying YSTTMWQYLPGA (peptide)
chain: YSTTMWQYLPGA
modifications: not fully specified (C-terminus)
notes: as for B4
Turning to B13, in series [9], the “Manders' Coefficient” value is 0.677.

B14: M13 phage clone 9 (9, 42) displaying … (peptide, not shown: large carriers)
chain: HWSGTHALSGRA
modifications: not fully specified
As for B14, the Manders' Coefficient in series [7] was 0.588.

B15: M13 phage clone 33 displaying … (peptide, not shown: large carriers)
chain: IAYPTDMSLSYK
modifications: not fully specified
In the case of B15, the Manders' Coefficient in series [7] was found to be 0.56.
